Measured values published in a protein production outcome set (Wang et al. 2014).

Assay: label from the status in PepcDB records

Row | Sequence | protein production
1 | MNHFTPAQQRKALGYLVLFHLVIIASSNYLVQIPFTIFGFHTTWGAFTFPFIFLATDLTVRIFGAGLARKIIFLVMLPALAVSYLLSVVFFEGQYQGLAPLSEFNLFVARIAIASFMAYLLGQIMDVHVFNRLRQMKQWWVAPTCSTLFGNALDTIAFFSIAFYQSSDPFMAEHWTEIALVDYTFKLIISLGLFVPMYGVLLNYLIKKLTAVNPNFAMASAKA | failed
2 | MPKSADQGGSPASASHEALRHILDAGASMGGLQGLDEAQQQALYAIGHGAYEQGRYADALKMFCLLVACDPLEARYLLALGAAAQELGLYEHALQQYAAAAALQLDSPRPLLHGAECLYALGRRRDALDTLDMVLELCGSPERAALRERAELLRRSYARAD | failed
3 | MKGTFTNLLVLLLIALVCANVGARKLISEDTQFKDEKSFLGGGGSGDGLGLGLGGGAGLGGLGIGAGIGAGAGLGLGGGGGGLGGGGGGLLGGGGFGGGAGGGLGGLP | failed
4 | MSLVTYQTIKVRFQASVCYITFHRPEANNTINDTLIEECLQVLNQCETSTVTVVVLEGLPEVFCFGADFQEIYQEMKRGRKQASSQEPLYDLWMKLQTGPYVTISHVRGKVNAGGLGFVSATDIAIADQTASFSLSELLFGLYPACVLPFLIRRIGRQKAHYMTLMTKPISVQEASEWGLIDAFDAESDVLLRKHLLRLRRLNKKGIAHYKQFMSSLDHQVSRAKATALTANQDMFSDPQNQMGIIRYVETGQFPWEDQEGHHHHHH | not failed
5 | MGQFSLDSISSEISERKSFIGRINDEKLSSFDDVVKQRETKSWRAWRRSKRRRFTRKRHGLLASATAEGSESTVHARLNEEDLTAEIVFEECHVSGGELNDVVRLENEMLDRFYGAGFWRSPSQKDTSSGSL | failed
6 | MEKLEVGQLAPDFRLKNSDGVEISLKDLLHKKVVLYFYPKDNTPGCTLEAKDFSALFSEFEKKNAVVVGISPDNAQSHQKFISQCSLNVILLCDEDKKAANLYKAYGKRMLYGKEHLGIIRSTFIINTQGVLEKCFYNVKAKGHAQKVLESL | failed
7 | MSLNSAAQAQSSDPVVIGCPAPLTGIVAADGIEFQRGIQMAADEINAVGGILGRPIELVFADTQSKGVDVVIQSAQRLIDRDNASALIAGYNLENGTALHDVAADAGVIAMHANTVAVHDEMVKSDPDRYWGTFQYDPPETLYGGGFLKFLKDIEDNGEFSRPNNKIAIITGPGIYSVNIANAIRDGAGEYGYDVSLFETVAIPVSDWGPTLAKLRADPPAVIVVTHFYPQDQALFMNQFMTDPTNSLVYLQYGASLAAFRDIAGDNSVGVTYATVLGTLQDEMGDAFAKAYKERYGDLSSTASGCQTYSALYAYSIAAALAGGPGAPYDDVQNKAVADRLRSLIFRGPVGTMRFHADTQSAWSYPTETNDPSLGMPHIFSQIFDKAEDGVLIAPAPYKKAGFKMPPWMKGEGHHHHHH | not failed
8 | PAIDYKTAFHLAPIGLVLSRDRVIEDCNDELAAIFRCARADLIGRSFEVLYPSSDEFERIGERISPVMIAHGSYADDRIMKRAGGELFWCHVTGRALDRTAPLAAGVWTFEDLSATRRVA | not failed
9 | MLPWNFEGEASEPAQDPTMAPHKRQSYEEELANAITHGVGLVLSLIGWVGLLVLSGLAGGGWDLAASAVFGGTLVFLYATSTLYHSVGTARLKRTLRILDHVAIFLLIAGTYTPFAGVLMREGWGWSVLALVWGIALAGLLFKLFSTHRFHPAATTLYLLMGWLGVLFADPMSAALPLGGLLLIVAGGLAYTIGVLFYGWHSLRYSHAIWHVFVLVGSACHYAAVVLYVL | failed
10 | MYQDRQGVVGGGGGGGSAPHGIILAVVVALVVLVPFFIGDSGEAITDAIAELLSPVGLLLLPIILLLTIQFLSSERGSFVSAIFSTGEPESIHRVSGSPVGVALFLVLILFLLYYRFSIFGGDDGSDD | failed
11 | MKLTGQAIDGFLRKPDPKIRCVLVYGPDEGLVRERLEQLARTVVADPKDPFRITDLSGDDLRADPARLADEAAALAFGGGRRLVRLRQMTDQHAPRLKAFVEAPVGEALVLVQGGDLTARSALRKLFEGASAAAALPCYADEGRSLETLVRATLAEARLAAAPEVIDYLVANLGGDRGVSRSELAKLVTYCGKATSVSLDDALACVGDSAQIGLDMLTNAVAEGDSATALRALDRLGQEGMATVALLRGLTRHFTRLHLVAGLIAGGTSVDQALAALKPPVMFKLAPRFRSQVQRWSAERLAQALDLLLDAEIDAKSSGLPERALVERLLLRLARGAKTASRLEHHHHHH | failed
12 | MRTPRFLRAVHANRTTARDVSSLRLPLQPRRDRARPGAMRTGLQGSVGIQCQLQRQHCQRQVASHAHYCADRGAVHCDGIACLDRAIGFQQLQGALGLAQEMRARHDLLTRVAAFFDAVGLQTVECQLLWRPLFALALDQASEPQLQIRAPPLRIYARRFDRRCQCFFGVQQQGARQRSAAQIQHDTLRSEIGLRGARAFRCCEAAKGKQRGSADFQLAAEDETAELGGDLGRVAVRQQHQQVCIVLTQKCEDGNHAPLRRQPRIPLPLPNRQRLYVIGKLGMRERHCIRADQSDVLDILQGAKTLRNKIQVVSHGRGGLKSPSCESTMIGHPTPTPAQDSETQPSSQEHIPEKKPLPKEIGGRDGPEPTRYGDWEKNGRCIDF | failed
13 | MLDRLLGRVHDTKHAAPILRGYLWWGLLLRAVLLLALGTLLVVEGNVLAEWLLTVRPPALPQEDVEELTAVSYTVIVVLLMVGTGARWQLLRRLEAAEAVPESAPSSAEEAPPLGR | failed
14 | MKIAVLGTGTVGRTMAGALADLGHEVTIGTRDPKATLARAEPDAMGAPPFSQWLPEHPHVHLAAFADVAAGAELVVNATEGASSIAALTAAGAENLAGKILVDIANPLDFSHGMPPTLNPVNTDSLGEQIQRTFPEAKVVKTLNTMNASLMVDPGRAAGGDHSVFVSGNDAAAKAEVATLLKSLGHQDVIDLGDITTARGAEMLLPVWIRLWGALGTANFNFKIAR | not failed
15 | MYLSLLKSLNRLSPRAWDFVQLTRIDKPIGIYLLLWPTLWAVWIAGKGSPSLNTVFIFVAGVFLMRAAGCVINDFADRKVDGHVKRTEQRPLVSGKVSSREALVLFAVLVSLSFVLVLFTNSTTIWLSFGGLALAACYPFMKRYTYYPQVVLGAAFSWGMPMAFTAETGELPAAAWLLYIANLLWTVGYDTYYAMVDRDDDLKIGVKSTAVLFGDADRVIILSLQGLALGCLALAGSRFELGAFFYMGLLVAAACFAWEFWSTRLRERDACFKAFLHNHWAGLAIFLGIVADYALR | failed
16 | MKKVKIFSIVLPLIYTSFMLYVTYKVYNGLRYRSLDLGIFTQSLYSLSEGKLFYNTVEFQLYEVHTHFGVHFQPILFLLTPLFLIKRDAYTLIIIQTLALGTSVYLAYKLAVKELGEKKGFALAILYSCNSSLISINVFEFHPVSLAVPLFLLAYKFLREESPLFYVISTLILLTKEDAFLGVLSITAWKILKEGLSVETLKKNKKIILFTILTLLYGIFTIKVVIPKFGGEYIYSNLYMEPRLDRRKLTYFLLFNLTFALLPLLNFFAILSLLPPWLECLLASRESQTMFGFHYPYMLVPLSFVISLDVAKKLDWKILRNLAILGVISSLITLPITNHLPKEQNPLVYPTVITPIPGKEASWEAIKITRELEGPIYTQPEFYPALATRLDVYVYPKNVKPKIILVNLNTYYGRRALERIKAFRVNLSEYKKVFEKDGVLIMVRKD | failed
17 | MDVPTPPPAEIYLAIQLPNPLSILVNYLPVSVTPIETLRGLVSTLEPTAINMDEFMTWPDFVLPETPFRTYFTLLLERGARPAIYLEGVRLACNFITVAHGLTMLSSISPIDAYACFSHGLFLTATGNGREVEAVNATFWDLVPSFEAANTVGELVMYHISRLHAEGTRLWNRSWRFVVSPDCLGRCSYGACCRNCFFYWYARELCIFY | failed
18 | MKQNLVAVDILLNQMRDRNIKLDSFVVSAIIETNCDRCRTEGASLAFDYSLEMGIHLKKSAYLALIGNFLRSNELPKVIEVVKEMVKAQHSLGCYQGAMLIHRLGFGRRPRLAADVFDLLPDDQKGVAAYTALMDVYISAGSPEKAMKILREMREREIMPSLGTYDVLLSGLEKTSDFQKEVALLRKEKKSLVASARFRENVHVEDKICDLLFATNLL | failed
